Common to all, as to type: binding
One assay addresses hT40 (Homo sapiens, UniProt P10636). Kind of assay: Biacore X100 SPR, scAb captured via anti-HuCk, hT40 as analyte. To be noted: scAb, Table 23, T441 (hT40). An outline of the steps: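 Captured scAb on anti-HuCk CM5 surface (flow cell 1 as reference) in HBS-EP+, capture set for theoretical RMax 100 RU; hT40 injected multi-cycle (0.15625–100 nM) or single-cycle (6.25–100 nM), 120 s association, 420 s dissociation, glycine pH 2.0 regeneration. Kinetics and affinity from 1:1 binding model fit.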

In another assay the target is htau40 (Homo sapiens, UniProt P10636). Kind of assay: Biacore X100 SPR of anti-tau mAbs on immobilised htau40. To be noted: mAb, Table 27, immobilised hT40. An outline of the steps:
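htau40 amine-coupled to a CM5 chip (~250 RU); mAb injected at 0.78–25 nM in HBS-EP+ at 30 μL/min, 120 s association, 600 s dissociation, glycine pH 1.5 regeneration. Kinetics and affinity from 1:1 binding fit with reference-cell subtraction.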
In general terms: In SPR one partner is held on a chip, and binding of the other changes the refractive index at the surface.

Assay [1] concerns tau protein in brain homogenate. Description: Capture ELISA on transgenic mouse brain lysates. To be noted: S1D12 mAb capture; WT, L1, L66+/- and L66+/+. As for the experimental part: Mouse brain lysates were prepared from wildtype, Line 1, Line 66+/+ and Line 66+/− (Melis et al., 2015, all surplus from Charles River, part of study R0144). All animals were female, 7-8 months old except Line 66+/+ which were 5 months old. […] The L1 cDNA construct (FIG. 23) contains human tau cDNA coding for amino acid residues 296-390 with a signal sequence and related sequences in a murine Thy-1 expression cassette. For brain lysate preparation, half brains were sectioned into four and the individual sections were homogenised in 400 μl of ice cold RIPA buffer (Cell signalling Technology) containing protease and phosphatase inhibitors. Total protein concentrations for individual samples were established by BCA-assay and each sample was subsequently diluted to 1 mg/ml for future experiments.
For capture ELISA, 100 µL S1D12 capture mAb was used to coat a nunc 96 well Maxisorp plate at 1 μg/ml and incubated for 1 hour at 37° C. Plate was washed as previously and then blocked for 1 hour at 37° C., in 2% MPBS. Brain homogenate samples (50 ng total protein) from each mouse type were added to the first wells and double diluted across the plate in PBS. These samples were left to incubate at RT for 1 hour. Various detection scAbs encompassing epitopes of interest were then added to the plate at 1 μg/ml and incubated for 1 h at RT. […]
In general terms: ELISA stands for enzyme-linked immunosorbent assay.

A further assay concerns tau fragments in plasma. Kind of assay: Capture ELISA on transgenic mouse plasma. To be noted: detection scAb, Line66 transgenic model. Here is the method: Plasma samples from WT, L1, L66+/− and L66^+/+ of various ages (1.5-9 months) were taken as described. Mice were terminally anaesthetized using an overdose of sodium pentobarbital and blood was collected through cardiac puncture through a Plastipak syringe pre-rinsed with heparinised saline heparin (10 U/ml) (Heparin sodium salt; Sigma-Aldrich) and transferred into a plastic vial containing lithium heparin anticoagulant (Sarstedt Ltd.) Blood samples, kept on ice for no more than 30 minutes, were centrifuged to obtain plasma at 2000× g for 5 minutes at 6° C. Plasma samples were stored at −20° C.
For mouse plasma capture ELISA, 100 μL capture mAb was coated to the bottom of a black nunc 96 well ‘maxisorp’ plate at 2.5 μg/ml and incubated for 1 hour at 37° C. After washing and blocking as normal, several known standard solutions were set up in triplicate starting at 20 ng/ml of the desired protein before double diluted in the remaining wells. Mouse samples were added to wells in duplicate with a blank in between each sample group. Line1 plasma was diluted 1:10 before addition to plate to account for its high concentration while other samples were diluted 1:2 to account for potential matrix effects. […] The ELISA was developed using SuperSignal ELISA Femto Substrate (Thermo Scientific) and total luminescence was read on Clariostar Plus plate reader (BMG Labtech). […]

The subject of a further assay is human tau and mouse tau. Kind of assay: Western blot of WT, L66+/+ and L1+/+ mouse brain homogenates. To be noted: 20 μg protein, 5-month-old mice. As for the experimental part: Protein equivalent to 20 μg from each brain extract was separated using 4-20% bis-tris gels and run in 1×MES buffer.
A band is detected in each sample (WT, L66^+/+ and L1^+/+) with an apparent molecular weight of approximately 55 kDa. This band most likely corresponds to endogenous mouse tau which is of a similar size. In the L66^+/+ samples, a second band running at approximately 68 kDa is also detected. The presence of numerous other bands indicates proteolytic truncation of tau within brain homogenates.
A general note: A western blot detects proteins with antibodies after separation by electrophoresis.

Chain of htau40 (P10636 1-441 isoform P10636-8): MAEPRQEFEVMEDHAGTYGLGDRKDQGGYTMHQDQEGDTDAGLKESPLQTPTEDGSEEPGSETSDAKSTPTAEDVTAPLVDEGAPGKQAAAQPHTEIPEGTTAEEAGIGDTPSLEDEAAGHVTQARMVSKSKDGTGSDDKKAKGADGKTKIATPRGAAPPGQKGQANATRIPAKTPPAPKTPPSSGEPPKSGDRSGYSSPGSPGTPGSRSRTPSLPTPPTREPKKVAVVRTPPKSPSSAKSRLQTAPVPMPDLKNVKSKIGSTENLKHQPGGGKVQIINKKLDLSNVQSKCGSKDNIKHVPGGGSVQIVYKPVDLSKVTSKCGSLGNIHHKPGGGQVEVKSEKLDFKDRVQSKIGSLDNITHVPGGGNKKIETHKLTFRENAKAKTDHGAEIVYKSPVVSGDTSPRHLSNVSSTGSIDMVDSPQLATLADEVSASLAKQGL
Chain of hT40 (P10636 1-441 isoform P10636-8): as above

B1: CB7: anti-tau clone, SEQ ID NO: 364 (protein)
scFv: QVQLQESGPSLVKPSQTLSLTCTVSGFSLTNYRVGWVRQAPGKALEWVSNIRSGGTTWYNPALKSRLSITADTSKSQVSLSLSSVTTEDTAVYYCARDSSGDLYAYDYWGPGLLVTVSSEGKSSGASGESKVDDQAVLTQPSSVSRSLGQSVSMTCSGSSSNVGYGNYMAWFQQVPGSAPKLLIYGATSRASGVPDRFSGSRSGNTATLTISSLQAEDEADYYCASYDSTSGGVFGSGTRLTVLG
modifications: CB7 amino acid sequence
Consider B1, for which, in the assay with hT40, the ka stood at 133400 M⁻¹ s⁻¹ and the kd came to 0.0006936 s⁻¹. In the assay with htau40, this molecule yielded a ka of 2.568e+06 M⁻¹ s⁻¹ and a kd of 0.009451 s⁻¹. Further, the “tau detection in mouse brain homogenate” value in assay [1] is reported as “hT40 tau was specifically detected in L66 samples”. Also, the “cross reaction with endogenous mouse tau protein” value in the assay with tau fragments in plasma is listed as “does not cross react with endogenous mouse tau protein”. Also, the “bands detected in western blot of WT, L66+/+ and L1+/+ brain homogenates” value with human tau and mouse tau was “show specificity for human tau”.

Source of the values: patent publication US12624096B2, “Anti-tau antibodies and methods of use thereof” (GTInvent Limited, priority 2020, dated 2026).
